Source: PMC6536566

Target: VC-OsSLAC1 (rice (Oryza sativa))
Experiment: split reporter (BiFC, NanoBiT); BiFC with Venus halves (VN, VC) co-expressed in rice protoplasts; confocal microscopy; ER-mCherry as internal control, Venus signal/mCherry signal

B1: VN-SAPK10 (natural protein)
chain: MDRAALTVGPGMDMPIMHDGDRYELVRDIGSGNFGVARLMRSRADGQLVAVKYIERGDKIDENVQREIINHRSLRHPNIIRFKEVILTPTHLAIVMEYASGGELFERICNAGRFSEDEARFFFQQLISGVSYCHSMQVCHRDLKLENTLLDGSTAPRLKICDFGYSKSSVLHSQPKSTVGTPAYIAPEVLLKKEYDGKIADVWSCGVTLYVMLVGAYPFEDPDEPKNFRKTIQRILGVQYSIPDYVHISPECRDLIARIFVANPATRISIPEIRNHPWFLKNLPADLMDDSKMSSQYEEPEQPMQSMDEIMQILAEATIPAAGSGGINQFLNDGLDLDDDMEDLDSDPDLDVESSGEIVYAM
With B1 as the binder, how does the BiFC fluorescence (Venus signal/mCherry signal) relative to VN-Hd3A with VC-SLAC1 read?
Its BiFC fluorescence (Venus signal/mCherry signal) relative to VN-Hd3A with VC-SLAC1 is 3 fold.
